Substitutions are numbered along the chain they refer to.
Tests used:
[1] = Pharmacokinetics of TEM8 antibodies in mouse, multiple dose; assay type: in vivo
From the text: (§1) Tables 8 and 9 show pharmacokinetic properties of TEM8 antibodies according to the present invention in mouse for single dose (Table 8) and multiple dose (Table 9) treatments.

[2] = target: T1, hTEM8-AP (Homo sapiens, UniProt Q9H6X2); experiment: Biocore affinity measurement of anti-TEM8 Fabs, hTEM8-AP; assay type: binding
T1 sequence (Q9H6X2 33-321 limits assumed): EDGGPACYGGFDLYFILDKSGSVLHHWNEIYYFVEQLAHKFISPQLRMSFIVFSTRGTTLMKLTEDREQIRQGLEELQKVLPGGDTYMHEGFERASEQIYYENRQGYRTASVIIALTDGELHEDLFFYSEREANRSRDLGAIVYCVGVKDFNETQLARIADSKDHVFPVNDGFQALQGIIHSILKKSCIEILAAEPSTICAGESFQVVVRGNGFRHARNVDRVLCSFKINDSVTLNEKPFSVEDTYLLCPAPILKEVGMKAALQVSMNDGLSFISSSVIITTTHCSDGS

[3] = system: MC38 colon carcinoma liver metastasis; experiment: Efficacy of M830 in MC38 colon carcinoma liver metastasis model; assay type: in vivo, C57BL/6 mice
From the text: C57BL/6 mice were challenged with MC38 colon carcinoma liver metastasis by intrasplenic injections of cultured cells.

[4] = system: HCT116 colorectal carcinoma xenograft; experiment: Efficacy of TEM8 antibodies in the HCT116 colorectal carcinoma xenograft model; assay type: in vivo, mice; conditions: HCT116 Colon; M830 alone; IP, 3 times per week; treatment initiated at 60-80 mm^3
Protocol: Tumor cells were cultured in RPMI-1640 medium supplemented with 10% fetal bovine serum, 2 mM glutamine, 100 units/mL penicillin G sodium, 100 μg/mL streptomycin sulfate, and 25 μg/mL gentamicin. The tumor cells were grown in tissue culture flasks in a humidified incubator at 37° C., in an atmosphere of 5% CO2 and 95% air.
2.5×10^6 to 5×10^6 HCT116 tumor cells were injected subcutaneously into the flank of mice. Tumor weights were calculated following surgical removal. Treatment was initiated when tumor volume reached 60-80 mm^3. Dosing volume was 10 mL/kg (0.2 mL/20 g mouse).
TEM8 Ab (hIgG1) doses were 5 and 15 mg/kg, three times per week, for 3 weeks. Bevacizumab was dosed at 5 mg/kg, twice per week, for 3 weeks. FIG. 1B and FIG. 1D show mean tumor growth and percent body weight change for each group, respectively, over the time course of the study.

[5] = target: T2, mTEM8-Fc (Mus musculus, UniProt Q9CZ52); experiment: Biocore affinity measurement of anti-TEM8 Fabs, mTEM8-Fc; assay type: binding
T2 construct: Fc
T2 sequence (Q9CZ52 31-319 limits assumed): T1 sequence (Q9H6X2 33-321 limits assumed) with K40R, R104S, S241A

[6] = system: UACC melanoma cells; experiment: TEM8 antibody efficacy in UACC melanoma model; assay type: in vivo, mice
Protocol: UACC melanoma cells were cultured and injected subcutaneously into mice. Treatment was initiated with a tumor volume of 50 mm^3, and treatment groups consisted of one of four TEM8 antibodies (M825, M830, M863, and M822), each dosed at 15 mg/kg, 3 times per week for 3-4 weeks.

[7] = system: H460 non-small cell lung carcinoma xenograft; experiment: Efficacy of M830 in the H460 non-small cell lung carcinoma xenograft model; assay type: in vivo, athymic nude mice; conditions: for % Tumor Reduction vs. Vehicle at Day 21: 3 times per week; for % Tumor Reduction vs. combination partner at Day (#): Day 32
Protocol: Animals were monitored for regression responses.
The statistical tests were not adjusted for multiple comparisons.
Cultured H460 cells were harvested during exponential growth and resuspended in phosphate buffered saline at a concentration of 1×10^8 cells/mL. 1.0×10^7 tumor cells were injected subcutaneously into the flank of athymic nude mice. Animals were euthanized when tumors reached the pre-determined volume endpoint of 2000 mm^3 or on the final day (Day 88), whichever came first.

[8] = Pharmacokinetics of TEM8 antibodies in mouse, single dose; assay type: in vivo
From the text: as §1

[9] = system: DLD-1 colorectal adenocarcinoma xenograft; experiment: Efficacy of M830 alone and in combination in the DLD-1 colorectal adenocarcinoma xenograft model; assay type: in vivo, mice; conditions: for % Tumor Reduction vs. Vehicle at Day 21 / % Tumor Reduction vs. combination partner at Day (#): DLD1 Colon; for % Tumor Reduction vs. Vehicle at Day 21: 3 times per week; for % Tumor Reduction vs. combination partner at Day (#): Day 21; for combination compared with any agent alone / efficacy against DLD-1 cancer cells in the xenograft model: first study
Protocol: Tumor weights were calculated following surgical removal. […] Irinotecan was given once per week at 60 mg/kg i.v. and bevacizumab was dosed at 5 mg/kg i.p., three times per week.
In a second study, treatment was initiated with a large tumor volume of approximately 170 mm^3. M830 alone or in combinations with bevacizumab, irinotecan, or both, was given as a loading dose of 20 mg/kg followed by 5 mg/kg three times per week. The doses of bevacizumab and irinotecan were the same as in the first study. An additional group received a combination of bevacizumab and irinotecan without the M830 antibody.

[10] = Group 7: M830 in combination with paclitaxel, n=10
[11] = H460 Lung, combination partner Paclitaxel
[12] = M830 15 mg/kg IP in combination with bevacizumab 5 mg/kg IP
[13] = M830 in combination with bevacizumab, n=10
[14] = combination of M830 and paclitaxel

B1: M830: TEM8 monoclonal antibody (hIgG1), VH SEQ ID NO:5 and VL SEQ ID NO:6 (antibody, V domains shown)
VH: EVQLVESGGGVVQPGRSVRLSCAASGFTFSTYTMHWVRQAPGKGLEWVAIISNDGSNKYYADPVRGRFTISRDNSKNTLYLQMNSLRAEDTAVYYCVRGSSWYRGNWFDPWGQGTLVTVSS
VL: DIQMTQSPSSLSASVGDRVTIACRASQTISRYLNWYQQKPGKAPKLLIYAASSLQSGVSSRFSGSGSGTEFTLTISSLQPEDFATYFCQQTYSPPITFGQGTRLEIKR
modifications: TEM830 mAb VH; TEM830 mAb VL
Work on B1 yielded an AUCI ([1]; 5 mg/kg) of 4316.79 µg·h/mL, an AUCT ([1]; 5 mg/kg) of 4315.918 µg·h/mL and a CLF ([1]; 5 mg/kg) of 1.16 mL/h/kg. It also gave a CMAX ([1]; 5 mg/kg) of 86400 ng/mL, an HALF ([1]; 5 mg/kg) of 22.88 h and a KEL ([1]; 5 mg/kg) of 0.0303 h⁻¹. For the same molecule, the TMAX ([1]; 5 mg/kg) was 3 h, the VZF ([1]; 5 mg/kg) was 0.03824 L/kg and the AUCI ([1]; 15 mg/kg) was 23053.875 µg·h/mL. The AUCT ([1]; 15 mg/kg) was 23052.853 µg·h/mL, the CLF ([1]; 15 mg/kg) was 0.65 mL/h/kg and the CMAX ([1]; 15 mg/kg) was 330000 ng/mL. The HALF ([1]; 15 mg/kg) was 18.70 h, the KEL ([1]; 15 mg/kg) was 0.0371 h⁻¹ and the TMAX ([1]; 15 mg/kg) was 3 h. The VZF ([1]; 15 mg/kg) was 0.01755 L/kg, the ka [2] was 607100 M⁻¹ s⁻¹ and the kd [2] was 0.0009533 s⁻¹. The survival of mice ([3]; P=0.0001) was “significantly improved the survival”, the median survival rate ([3]; versus 11 days for vehicle treated mice) was 17 days and the “% Tumor Reduction vs. Vehicle at Day 21” value [4] was 39.5%. The ka [5] was 774900 M⁻¹ s⁻¹, the kd [5] was 0.002901 s⁻¹ and the “slowing of tumor growth” value ([6]; 15 mg/kg, 3 times per week for 3-4 weeks, treatment initiated at 50 mm^3) was “effective at slowing tumor growth”. The “% Tumor Reduction vs. Vehicle at Day 21” value ([6]; UACC Melanoma, M830 alone, IP, 3 times per week, treatment initiated at about 50 mm^3) was 65%, the TGD ([7]; Group 7: M830 15 mg/kg IP in combination with paclitaxel 30 mg/kg IV, maximum possible TGD 65.2 days (286%) for the 88-day study) was “maximum TGD” and the regression responses ([7]; Group 7: M830 15 mg/kg IP in combination with paclitaxel 30 mg/kg IV, n=10) was 90%. For the same molecule, the “CRs (complete regressions)” value [7, 10] was “seven”, the “PRs (partial regressions)” value [7, 10] was “two” and the “TFS (tumor-free survivors) at study end” value [7, 10] was “three”. For the same molecule, the “% Tumor Reduction vs. Vehicle at Day 21” value ([7]; H460 Lung, M830 alone, IP) was 62%, the “% Tumor Reduction vs. combination partner at Day (#)” value ([7]; H460 Lung, combination partner Bevacizumab) was 58.5% (32) and the “% Tumor Reduction vs. Vehicle at Day 21” value ([7]; H460 Lung, combination partner Bevacizumab, M830 IP) was 94.5%. The “regression (in cell of % Tumor Reduction vs. Vehicle at Day 21)” value [7, 11] was −61%, the “% Tumor Reduction vs. combination partner at Day (#)” value [7, 11] was 94% (32) and the “% Tumor Reduction vs. Vehicle at Day 21” value ([7]; H460 Lung, combination partner Paclitaxel, M830 IP, treatment initiated at 60-80 mm^3) was greater than 100%. For the same molecule, the “% TGD” value [7, 12] was 146%, the TGD [7, 12] was 33.2 days and the “CRs (complete regressions)” value [7, 13] was 3. For the same molecule, the “PR (partial regressions)” value [7, 13] was 1, the “TFS (tumor-free survivors) at study end” value [7, 13] was “three” and the regression responses [7, 13] was 40%. For the same molecule, the “rank of activity among regimens” value ([7]; M830 in combination with paclitaxel) was “most active treatment regimen tested”, the “combination compared with either agent alone” value [7, 14] was “more effective than either agent alone” and the “efficacy against H460 cancer cells in the xenograft model” value [7, 14] was “effective”. The AUCI ([8]; 5 mg/kg) was 2242.485 µg·h/mL, the AUCT ([8]; 5 mg/kg) was 2242.286 µg·h/mL and the CLF ([8]; 5 mg/kg) was 2.23 mL/h/kg. The CMAX ([8]; 5 mg/kg) was 67500 ng/mL, the HALF ([8]; 5 mg/kg) was 8.54 h and the KEL ([8]; 5 mg/kg) was 0.0811 h⁻¹. It also gave a TMAX ([8]; 5 mg/kg) of 3 h, a VZF ([8]; 5 mg/kg) of 0.02748 L/kg and an AUCI ([8]; 15 mg/kg) of 10692.742 µg·h/mL. For the same molecule, the AUCT ([8]; 15 mg/kg) was 10692.598 µg·h/mL, the CLF ([8]; 15 mg/kg) was 1.40 mL/h/kg and the CMAX ([8]; 15 mg/kg) was 203000 ng/mL. For the same molecule, the HALF ([8]; 15 mg/kg) was 14.94 h, the KEL ([8]; 15 mg/kg) was 0.0464 h⁻¹ and the TMAX ([8]; 15 mg/kg) was 3 h. The VZF ([8]; 15 mg/kg) was 0.03024 L/kg, the “% Tumor Reduction vs. Vehicle at Day 21” value ([9]; M830 alone, IP) was 68% and the “% Tumor Reduction vs. combination partner at Day (#)” value ([9]; combination partner Bevacizumab) was 48% (21). The “% Tumor Reduction vs. Vehicle at Day 21” value ([9]; combination partner Bevacizumab, M830 IP) was 86%, the “% Tumor Reduction vs. combination partner at Day (#)” value ([9]; combination partner Irinotecan) was 53% (21) and the “% Tumor Reduction vs. Vehicle at Day 21” value ([9]; combination partner Irinotecan, M830 IP, treatment initiated at about 50 mm^3) was 86%. For the same molecule, the “combination compared with any agent alone” value ([9]; combination M830/bevacizumab) was “more effective than any agent alone”, the “efficacy against DLD-1 cancer cells in the xenograft model” value ([9]; combination M830/bevacizumab) was “effective” and the “combination compared with any agent alone” value ([9]; combination M830/irinotecan) was “more effective than any agent alone”. For the same molecule, the “efficacy against DLD-1 cancer cells in the xenograft model” value ([9]; combination M830/irinotecan) was “effective” and the “triple combination compared with M830/bevacizumab combination” value ([9]; second study, M830 with bevacizumab and irinotecan) was “did not outperform the M830/bevacizumab combination therapy”.
